The numbers were not newly measured in paper PMC3774674, which cites them from elsewhere.

In the data set the target is E-cadherin EC12 (Mus musculus) (UniProt P09803).

In the case of E-cadherin EC12 (from UniProt P09803), the Kd is 98.6 µM.

Broadly, the Kd is the equilibrium constant for the complex coming apart.
